Experiment [1] deals with T1, human PDL1 (recombinant, soluble) (human, UniProt Q9NZQ7 19-238).
T1 construct: also called hPDL1; hPD-L1
Put plainly: PDL1/B7-1 competition ELISA; B7-1 coated, biotinylated PDL1 40 ng/ml. For orientation: ELISA stands for enzyme-linked immunosorbent assay.

Experiment [2] concerns the target T1, human PDL1 (recombinant, soluble). Put plainly: PD-1/PDL1 competition ELISA in the presence of 1 mg/ml human serum albumin: biotinylated human PDL1 pre-incubated with the inhibitor, then binding to plate-coated human PD-1; blocked ligand PD-1. As for the experimental part:
(§1) ELISA microplates coated overnight at 4° C. with 4 μg/ml human PD-1 were washed three times with 450 μl wash buffer per well. Plates were blocked for 1 hour at room temperature by adding 300 μl of PBS with 1% BSA and 0.2% tween (dilution buffer) to each well. […] The mixtures were pre-incubated for 1 hour at room temperature under gentle agitation on a rotating mixer (21 rpm) and added to the microplates after 3 wash cycles with 450 μl wash buffer per well. Plates were incubated for 1.5 hours at room temperature under gentle agitation, then 10 ng/ml streptavidin-polyHRP40 was added to each microplate well after three washes with 450 μl of wash buffer per well. After 1 h incubation at RT, plates were washed three times with 450 μl wash buffer and TMB substrate solution was added. The enzymatic reaction was stopped after 6 minutes by addition of 1 M HCl and absorbance was measured at 450 nm using 690 nm as a reference wavelength. For calculation of IC₅₀ values, a four-parameter logistic (4PL) curve fit was performed in Graph Pad Prism using reference subtracted values.

The target is the same in experiment [3]. Put plainly: PDL1/PD-1 competition ELISA; PD-1 coated, biotinylated PDL1 1 ng/ml.
Experiment [4] deals with human PDL1 expressed on cells (human, UniProt Q9NZQ7 19-290). The experiment in a line: cell-based or functional assay.
For experiment [5], the target named is T1, human PDL1 (recombinant, soluble). The experiment in a line: PDL1/PD-1 competition ELISA with human serum albumin. As for the experimental part:
as §1

The IC50 is the concentration that inhibits the measured activity by half.

B1: PRO1057 (38_02_A04 sc01 scDb-i/33-03-G02 sc01 scDb-o/mxr HSA (23-13-A01-sc03, sk17sh4)) (other)
chain: DIQMTQSPSSLSASVGDRVTITCQASQSINDYLAWYQQKPGKAPKLLIYKASTLASGVPSRFSGSGSGTDFTLTISSLQPEDFATYYCQQGYIITDIDNVFGTGTKVTVLGGGGGSQVQLQESGPGLVKPSETLSLTCKVSGFSFSNSYWICWIRQPPGKGLEWIGCTFVGSSDSTYYANWAKGRVTISVDSSKNQFSLKLSSVTAADTAVYYCARHPSDAVYGYANNLWGQGTLVTVSSGGGGSGGGGSGGGGSGGGGSIQMTQSPSSLSASVGDRVTITCQASQSINNVLAWYQQKPGKAPKLLIYRASTLASGVPSRFSGSGSGTDFTLTISSLQPEDFATYYCQSSYGNYGDFGTGTKVTVLGGGGGSQVQLQESGPGLVKPSETLSLTCKVSGFSFSSGYDMCWIRQPPGKGLEWIGCVVAGSVDITYYASWAKGRVTISVDSSKNQFSLKLSSVTAADTAVYYCARKDAYSDAFNLWGQGTLVTVSSGGGGSGGGGSVVMTQSPSSLSASVGDRVTITCQASQIISSRSAWYQQKPGQPPKLLIYQASKLASGVPSRFSGSGSGTDFTLTISSLQPEDFATYYCQCTYIDSNFGAFGGGTKLTVLGGGGGSGGGGSGGGGSGGGGSEVQLVESGGGLVQPGGSLRLSCAASGFSFSSSYWICWVRQAPGKGLEWVGCVFTGDGTTYYASWAKGRFTISRDNSKNTVYLQMNSLRAEDTATYFCARPVSVYYYGMDLWGQGTLVTVSS
For the molecule B1, the 50% inhibitory concentration (IC50) in experiment [1] worked out at 0.0163 µg/mL; in experiment [3], 0.00861 µg/mL. In experiment [2], the “IC50 (read off the curve)” value is ~0.02 µg/mL. Further, in experiment [4], the “NF-AT potency assay IC50 (with HSA)” value came out at 0.665 µg/mL. Further, the “fold higher IC50 in presence of human serum albumin” value in experiment [5] was ~2 fold.
